T1: EsCas13d, nuclease-dead (Eubacterium siraeum, UniProt B0MS50, R295A;H300A;R849A;H854A)
T1 sequence: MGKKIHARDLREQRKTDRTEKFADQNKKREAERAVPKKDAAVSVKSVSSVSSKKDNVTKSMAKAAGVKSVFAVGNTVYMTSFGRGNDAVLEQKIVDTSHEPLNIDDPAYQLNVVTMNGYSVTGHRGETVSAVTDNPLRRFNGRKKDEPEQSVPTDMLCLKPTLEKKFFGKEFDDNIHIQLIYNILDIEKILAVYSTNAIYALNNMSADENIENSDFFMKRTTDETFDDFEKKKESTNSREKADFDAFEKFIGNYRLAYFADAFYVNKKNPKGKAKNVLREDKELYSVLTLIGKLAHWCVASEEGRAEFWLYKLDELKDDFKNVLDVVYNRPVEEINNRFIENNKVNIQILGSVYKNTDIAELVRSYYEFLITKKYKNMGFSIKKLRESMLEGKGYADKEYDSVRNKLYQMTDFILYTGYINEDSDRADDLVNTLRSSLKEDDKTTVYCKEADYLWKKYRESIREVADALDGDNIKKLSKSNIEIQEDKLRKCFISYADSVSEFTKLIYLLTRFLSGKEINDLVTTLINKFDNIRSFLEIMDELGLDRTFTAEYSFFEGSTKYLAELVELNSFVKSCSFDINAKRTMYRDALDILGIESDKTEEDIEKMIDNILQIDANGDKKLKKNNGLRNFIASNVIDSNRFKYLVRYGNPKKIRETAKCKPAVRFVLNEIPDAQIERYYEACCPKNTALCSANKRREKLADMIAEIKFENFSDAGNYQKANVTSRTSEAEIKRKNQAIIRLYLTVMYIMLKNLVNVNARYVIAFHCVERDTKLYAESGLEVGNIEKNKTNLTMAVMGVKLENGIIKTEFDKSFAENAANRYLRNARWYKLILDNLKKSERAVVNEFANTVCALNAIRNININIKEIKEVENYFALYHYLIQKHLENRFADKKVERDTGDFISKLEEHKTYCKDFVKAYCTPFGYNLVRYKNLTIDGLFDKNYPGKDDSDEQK

B1: target 1 insU 3' of 20,insA 3' of 7 (mixed)
RNA 1: CACCCGUGCAAAAAUGCAGGGGUCUAAAACUGAGCGGAUAACCUCUCUAUGG
RNA 2: GGGAAUGGAUCCACAUCUACGAAUUCGUACCAUUAGAGAGGUUAUCACGCUCACCGAGAUCGGAAGAGCACACGU
B2: target 1 U3A,A9C (mixed)
RNA 1: CACCCGUGCAAAAAUGCAGGGGUCUAAAACUGAGCGGAUAACCUCUCUAUGG
RNA 2: GGGAAUGGAUCCACAUCUACGAAUUCGUACCAUAGAGAGGUUCUCCGCACACCGAGAUCGGAAGAGCACACGU
B3: target 1 insC 3' of 18,insA 3' of 8 (mixed)
RNA 1: CACCCGUGCAAAAAUGCAGGGGUCUAAAACUGAGCGGAUAACCUCUCUAUGG
RNA 2: GGGAAUGGAUCCACAUCUACGAAUUCGUACCAUACGAGAGGUUAUACCGCUCACCGAGAUCGGAAGAGCACACGU
B4: target 1 insU 3' of 20,insC 3' of 11 (mixed)
RNA 1: CACCCGUGCAAAAAUGCAGGGGUCUAAAACUGAGCGGAUAACCUCUCUAUGG
RNA 2: GGGAAUGGAUCCACAUCUACGAAUUCGUACCAUUAGAGAGGUCUAUCCGCUCACCGAGAUCGGAAGAGCACACGU
B5: target 1 A9G,U19C (mixed)
RNA 1: CACCCGUGCAAAAAUGCAGGGGUCUAAAACUGAGCGGAUAACCUCUCUAUGG
RNA 2: GGGAAUGGAUCCACAUCUACGAAUUCGUACCACAGAGAGGUUGUCCGCUCACCGAGAUCGGAAGAGCACACGU
B6: target 1 A9U,U10A (mixed)
RNA 1: CACCCGUGCAAAAAUGCAGGGGUCUAAAACUGAGCGGAUAACCUCUCUAUGG
RNA 2: GGGAAUGGAUCCACAUCUACGAAUUCGUACCAUAGAGAGGUAUUCCGCUCACCGAGAUCGGAAGAGCACACGU
B7: target 1 insU 3' of 13,insU 3' of 2 (mixed)
RNA 1: CACCCGUGCAAAAAUGCAGGGGUCUAAAACUGAGCGGAUAACCUCUCUAUGG
RNA 2: GGGAAUGGAUCCACAUCUACGAAUUCGUACCAUAGAGAGUGUUAUCCGCUCUACCGAGAUCGGAAGAGCACACGU
B8: target 1 C2A,C6U (mixed)
RNA 1: CACCCGUGCAAAAAUGCAGGGGUCUAAAACUGAGCGGAUAACCUCUCUAUGG
RNA 2: GGGAAUGGAUCCACAUCUACGAAUUCGUACCAUAGAGAGGUUAUCUGCUAACCGAGAUCGGAAGAGCACACGU
B9: target 1 insA 3' of 15,insG 3' of 6 (mixed)
RNA 1: CACCCGUGCAAAAAUGCAGGGGUCUAAAACUGAGCGGAUAACCUCUCUAUGG
RNA 2: GGGAAUGGAUCCACAUCUACGAAUUCGUACCAUAGAGAAGGUUAUCCGGCUCACCGAGAUCGGAAGAGCACACGU
B10: target 1 G5A,G12U (mixed)
RNA 1: CACCCGUGCAAAAAUGCAGGGGUCUAAAACUGAGCGGAUAACCUCUCUAUGG
RNA 2: GGGAAUGGAUCCACAUCUACGAAUUCGUACCAUAGAGAGUUUAUCCACUCACCGAGAUCGGAAGAGCACACGU
B11: target 1 C7A,G12C (mixed)
RNA 1: CACCCGUGCAAAAAUGCAGGGGUCUAAAACUGAGCGGAUAACCUCUCUAUGG
RNA 2: GGGAAUGGAUCCACAUCUACGAAUUCGUACCAUAGAGAGCUUAUACGCUCACCGAGAUCGGAAGAGCACACGU
B12: target 1 insC 3' of 15,insG 3' of 2 (mixed)
RNA 1: CACCCGUGCAAAAAUGCAGGGGUCUAAAACUGAGCGGAUAACCUCUCUAUGG
RNA 2: GGGAAUGGAUCCACAUCUACGAAUUCGUACCAUAGAGCAGGUUAUCCGCUCGACCGAGAUCGGAAGAGCACACGU
B13: target 1 insA 3' of 22,insU 3' of 13 (mixed)
RNA 1: CACCCGUGCAAAAAUGCAGGGGUCUAAAACUGAGCGGAUAACCUCUCUAUGG
RNA 2: GGGAAUGGAUCCACAUCUACGAAUUCGUACACAUAGAGAGUGUUAUCCGCUCACCGAGAUCGGAAGAGCACACGU
B14: target 1 C7U,U19A (mixed)
RNA 1: CACCCGUGCAAAAAUGCAGGGGUCUAAAACUGAGCGGAUAACCUCUCUAUGG
RNA 2: GGGAAUGGAUCCACAUCUACGAAUUCGUACCAAAGAGAGGUUAUUCGCUCACCGAGAUCGGAAGAGCACACGU
B15: target 1 insG 3' of 11,insA 3' of 8 (mixed)
RNA 1: CACCCGUGCAAAAAUGCAGGGGUCUAAAACUGAGCGGAUAACCUCUCUAUGG
RNA 2: GGGAAUGGAUCCACAUCUACGAAUUCGUACCAUAGAGAGGUGUAUACCGCUCACCGAGAUCGGAAGAGCACACGU
B16: target 1 C2U,U3G (mixed)
RNA 1: CACCCGUGCAAAAAUGCAGGGGUCUAAAACUGAGCGGAUAACCUCUCUAUGG
RNA 2: GGGAAUGGAUCCACAUCUACGAAUUCGUACCAUAGAGAGGUUAUCCGCGUACCGAGAUCGGAAGAGCACACGU
B17: target 1 C4G,A9U (mixed)
RNA 1: CACCCGUGCAAAAAUGCAGGGGUCUAAAACUGAGCGGAUAACCUCUCUAUGG
RNA 2: GGGAAUGGAUCCACAUCUACGAAUUCGUACCAUAGAGAGGUUUUCCGGUCACCGAGAUCGGAAGAGCACACGU
B18: target 1 C2G,G13U (mixed)
RNA 1: CACCCGUGCAAAAAUGCAGGGGUCUAAAACUGAGCGGAUAACCUCUCUAUGG
RNA 2: GGGAAUGGAUCCACAUCUACGAAUUCGUACCAUAGAGAUGUUAUCCGCUGACCGAGAUCGGAAGAGCACACGU
B19: target 1 insG 3' of 10,insU 3' of 7 (mixed)
RNA 1: CACCCGUGCAAAAAUGCAGGGGUCUAAAACUGAGCGGAUAACCUCUCUAUGG
RNA 2: GGGAAUGGAUCCACAUCUACGAAUUCGUACCAUAGAGAGGUUGAUCUCGCUCACCGAGAUCGGAAGAGCACACGU
B20: target 1 insG 3' of 7,insU 3' of 4 (mixed)
RNA 1: CACCCGUGCAAAAAUGCAGGGGUCUAAAACUGAGCGGAUAACCUCUCUAUGG
RNA 2: GGGAAUGGAUCCACAUCUACGAAUUCGUACCAUAGAGAGGUUAUCGCGCUUCACCGAGAUCGGAAGAGCACACGU
B21: target 1 G17A,C22A (mixed)
RNA 1: CACCCGUGCAAAAAUGCAGGGGUCUAAAACUGAGCGGAUAACCUCUCUAUGG
RNA 2: GGGAAUGGAUCCACAUCUACGAAUUCGUAACAUAAAGAGGUUAUCCGCUCACCGAGAUCGGAAGAGCACACGU
B22: target 1 insC 3' of 11,insG 3' of 7 (mixed)
RNA 1: CACCCGUGCAAAAAUGCAGGGGUCUAAAACUGAGCGGAUAACCUCUCUAUGG
RNA 2: GGGAAUGGAUCCACAUCUACGAAUUCGUACCAUAGAGAGGUCUAUCGCGCUCACCGAGAUCGGAAGAGCACACGU
B23: target 1 insU 3' of 17,insG 3' of 8 (mixed)
RNA 1: CACCCGUGCAAAAAUGCAGGGGUCUAAAACUGAGCGGAUAACCUCUCUAUGG
RNA 2: GGGAAUGGAUCCACAUCUACGAAUUCGUACCAUAGUAGAGGUUAUGCCGCUCACCGAGAUCGGAAGAGCACACGU
B24: target 1 complement block 3-6 (mixed)
RNA 1: CACCCGUGCAAAAAUGCAGGGGUCUAAAACUGAGCGGAUAACCUCUCUAUGG
RNA 2: GGGAAUGGAUCCACAUCUACGAAUUCGUACCAUAGAGAGGUUAUCGCGACACCGAGAUCGGAAGAGCACACGU
B25: target 1 insU 3' of 20,insU 3' of 5 (mixed)
RNA 1: CACCCGUGCAAAAAUGCAGGGGUCUAAAACUGAGCGGAUAACCUCUCUAUGG
RNA 2: GGGAAUGGAUCCACAUCUACGAAUUCGUACCAUUAGAGAGGUUAUCCGUCUCACCGAGAUCGGAAGAGCACACGU
B26: target 1 insC 3' of 20,insC 3' of 9 (mixed)
RNA 1: CACCCGUGCAAAAAUGCAGGGGUCUAAAACUGAGCGGAUAACCUCUCUAUGG
RNA 2: GGGAAUGGAUCCACAUCUACGAAUUCGUACCACUAGAGAGGUUACUCCGCUCACCGAGAUCGGAAGAGCACACGU
B27: target 1 insU 3' of 13,insC 3' of 5 (mixed)
RNA 1: CACCCGUGCAAAAAUGCAGGGGUCUAAAACUGAGCGGAUAACCUCUCUAUGG
RNA 2: GGGAAUGGAUCCACAUCUACGAAUUCGUACCAUAGAGAGUGUUAUCCGCCUCACCGAGAUCGGAAGAGCACACGU

A word on the Kd: it is the equilibrium constant for the complex coming apart. A low value points to tighter binding.

The data set deals with T1, EsCas13d, nuclease-dead. In words: crRNA (strand 1, pre-loaded); Mg2+; 40 mM Tris-HCl pH 7.5, 150 mM NaCl, 6 mM MgCl2, 1 mM DTT, 0.1% Tween-20, 0.2 mg/ml BSA; 25 C; 10 min per concentration, then washed. Particulars: tags: His6-TwinStrep-SUMO cleaved; N-terminal SNAP kept (SNAP-Surface 488); label: 3' end held by stalled T7 RNA polymerase.
B1 yielded an equilibrium dissociation constant (Kd) of 9.9 ± 0.6 nM.
Regarding B2, the dissociation constant Kd amounted to 14.6 ± 2 nM.
For B3, the affinity, expressed as Kd, was 69 ± 10 nM.
Then B4, with 62 ± 18 nM.
In the case of B5 it was 33.8 ± 3.3 nM; in that of B6, 20.5 ± 2.1 nM; in that of B7, 16.6 ± 2.1 nM.
In the case of B8 it was 5.88 ± 0.27 nM; in that of B9, 9.3 ± 0.5 nM; in that of B10, 14.4 ± 1.4 nM.
The molecule B11 came in with a Kd of 16.4 ± 1.1 nM.
In the case of B12, the Kd stood at 17.9 ± 1.3 nM.
With B13, the dissociation constant (Kd) came to 20.6 ± 2.9 nM.
In turn, B14 yielded a Kd of 34 ± 4 nM.
With B15, the Kd was determined as 40.5 ± 2.5 nM.
Then B16, with 21 ± 4 nM.
In the case of B17 it was 3.93 ± 0.23 nM; in that of B18, roughly 60 nM; in that of B19, 21.8 ± 0.9 nM.
Consider B20, for which the affinity, expressed as Kd, was 6.4 ± 0.4 nM.
In the case of B21 it was 57 ± 7 nM; in that of B22, 23.8 ± 1.5 nM; in that of B23, 21 ± 1.2 nM.
In the case of B24 it was 5.84 ± 0.3 nM; in that of B25, 24 ± 4 nM; in that of B26, 8.9 ± 0.6 nM.
With B27, the Kd worked out at 21 ± 4 nM.

The values are drawn from article PMC10786891, “Massively parallel profiling of RNA-targeting CRISPR-Cas13d”.
